Where no end group is shown, it is not given here. [ ]: non-standard residue; d: D form. Aib = CC(C)(N)C(=O)O
Target: human GLP-1 receptor (human, UniProt P43220)
Experiment: cell-based or functional assay

Binder | CRE luciferase EC50, 0% HSA [nM] | CRE luciferase EC50, 1% HSA [nM]
H[Aib]EGTFTSDVSSYLEGEAVKLFIAWLVEK[Aib]KEFL-NH2 (N-terminus assumed; SMILES CC[C@H](C)[C@H](NC(=O)[C@H](Cc1ccccc1)NC(=O)[C@H](CC(C)C)NC(=O)[C@H](CCCCN)NC(=O)[C@@H](NC(=O)[C@H](C)NC(=O)[C@H](CCC(=O)O)NC(=O)CNC(=O)[C@H](CCC(=O)O)NC(=O)[C@H](CC(C)C)NC(=O)[C@H](Cc1ccc(O)cc1)NC(=O)[C@H](CO)NC(=O)[C@H](CO)NC(=O)[C@@H](NC(=O)[C@H](CC(=O)O)NC(=O)[C@H](CO)NC(=O)[C@@H](NC(=O)[C@H](Cc1ccccc1)NC(=O)[C@@H](NC(=O)CNC(=O)[C@H](CCC(=O)O)NC(=O)C(C)(C)NC(=O)[C@@H](N)Cc1c[nH]cn1)[C@@H](C)O)[C@@H](C)O)C(C)C)C(C)C)C(=O)N[C@@H](C)C(=O)N[C@@H](Cc1c[nH]c2ccccc12)C(=O)N[C@@H](CC(C)C)C(=O)N[C@H](C(=O)N[C@@H](CCC(=O)O)C(=O)N[C@@H](CCCCN)C(=O)NC(C)(C)C(=O)N[C@@H](CCCCN)C(=O)N[C@@H](CCC(=O)O)C(=O)N[C@@H](Cc1ccccc1)C(=O)N[C@@H](CC(C)C)C(N)=O)C(C)C) [[Aib8,Glu23,Val25,Leu27,Glu34,Lys35,Aib36,Lys37]-GLP-1-(7-37)-peptidyl-Glu-Phe-Leu amide] | 0.269 | 0.104
H[Aib]EGTFTSDLSKQMEEEAVREFIEWLKNK[Aib]PEFLELL-NH2 (N-terminus assumed; SMILES CC[C@H](C)[C@H](NC(=O)[C@H](Cc1ccccc1)NC(=O)[C@H](CCC(=O)O)NC(=O)[C@H](CCCNC(=N)N)NC(=O)[C@@H](NC(=O)[C@H](C)NC(=O)[C@H](CCC(=O)O)NC(=O)[C@H](CCC(=O)O)NC(=O)[C@H](CCC(=O)O)NC(=O)[C@H](CCSC)NC(=O)[C@H](CCC(N)=O)NC(=O)[C@H](CCCCN)NC(=O)[C@H](CO)NC(=O)[C@H](CC(C)C)NC(=O)[C@H](CC(=O)O)NC(=O)[C@H](CO)NC(=O)[C@@H](NC(=O)[C@H](Cc1ccccc1)NC(=O)[C@@H](NC(=O)CNC(=O)[C@H](CCC(=O)O)NC(=O)C(C)(C)NC(=O)[C@@H](N)Cc1c[nH]cn1)[C@@H](C)O)[C@@H](C)O)C(C)C)C(=O)N[C@@H](CCC(=O)O)C(=O)N[C@@H](Cc1c[nH]c2ccccc12)C(=O)N[C@@H](CC(C)C)C(=O)N[C@@H](CCCCN)C(=O)N[C@@H](CC(N)=O)C(=O)N[C@@H](CCCCN)C(=O)NC(C)(C)C(=O)N1CCC[C@H]1C(=O)N[C@@H](CCC(=O)O)C(=O)N[C@@H](Cc1ccccc1)C(=O)N[C@@H](CC(C)C)C(=O)N[C@@H](CCC(=O)O)C(=O)N[C@@H](CC(C)C)C(=O)N[C@@H](CC(C)C)C(N)=O) [[Aib2,Glu21,Lys29,Aib30,Glu32,Phe33,Leu34,Glu35,Leu36,Leu37]-Exendin-4-(1-37)-peptide amide] | 0.058 | 0.032
H[Aib]EGTFTSDLSKQMEEEAVREFIEWLKNK[Aib]LSFLELL-NH2 (N-terminus assumed; SMILES CC[C@H](C)[C@H](NC(=O)[C@H](Cc1ccccc1)NC(=O)[C@H](CCC(=O)O)NC(=O)[C@H](CCCNC(=N)N)NC(=O)[C@@H](NC(=O)[C@H](C)NC(=O)[C@H](CCC(=O)O)NC(=O)[C@H](CCC(=O)O)NC(=O)[C@H](CCC(=O)O)NC(=O)[C@H](CCSC)NC(=O)[C@H](CCC(N)=O)NC(=O)[C@H](CCCCN)NC(=O)[C@H](CO)NC(=O)[C@H](CC(C)C)NC(=O)[C@H](CC(=O)O)NC(=O)[C@H](CO)NC(=O)[C@@H](NC(=O)[C@H](Cc1ccccc1)NC(=O)[C@@H](NC(=O)CNC(=O)[C@H](CCC(=O)O)NC(=O)C(C)(C)NC(=O)[C@@H](N)Cc1c[nH]cn1)[C@@H](C)O)[C@@H](C)O)C(C)C)C(=O)N[C@@H](CCC(=O)O)C(=O)N[C@@H](Cc1c[nH]c2ccccc12)C(=O)N[C@@H](CC(C)C)C(=O)N[C@@H](CCCCN)C(=O)N[C@@H](CC(N)=O)C(=O)N[C@@H](CCCCN)C(=O)NC(C)(C)C(=O)N[C@@H](CC(C)C)C(=O)N[C@@H](CO)C(=O)N[C@@H](Cc1ccccc1)C(=O)N[C@@H](CC(C)C)C(=O)N[C@@H](CCC(=O)O)C(=O)N[C@@H](CC(C)C)C(=O)N[C@@H](CC(C)C)C(N)=O) [[Aib2,Glu21,Lys29,Aib30,Leu31,Phe33,Leu34,Glu35,Leu36,Leu37]-Exendin-4-(1-37)-peptide amide] | 0.358 | 0.145
H[Aib]EGTFTSDVSSYLEGEAVKEFIAWLVEG[Aib]KEFL-NH2 (N-terminus assumed; SMILES CC[C@H](C)[C@H](NC(=O)[C@H](Cc1ccccc1)NC(=O)[C@H](CCC(=O)O)NC(=O)[C@H](CCCCN)NC(=O)[C@@H](NC(=O)[C@H](C)NC(=O)[C@H](CCC(=O)O)NC(=O)CNC(=O)[C@H](CCC(=O)O)NC(=O)[C@H](CC(C)C)NC(=O)[C@H](Cc1ccc(O)cc1)NC(=O)[C@H](CO)NC(=O)[C@H](CO)NC(=O)[C@@H](NC(=O)[C@H](CC(=O)O)NC(=O)[C@H](CO)NC(=O)[C@@H](NC(=O)[C@H](Cc1ccccc1)NC(=O)[C@@H](NC(=O)CNC(=O)[C@H](CCC(=O)O)NC(=O)C(C)(C)NC(=O)[C@@H](N)Cc1c[nH]cn1)[C@@H](C)O)[C@@H](C)O)C(C)C)C(C)C)C(=O)N[C@@H](C)C(=O)N[C@@H](Cc1c[nH]c2ccccc12)C(=O)N[C@@H](CC(C)C)C(=O)N[C@H](C(=O)N[C@@H](CCC(=O)O)C(=O)NCC(=O)NC(C)(C)C(=O)N[C@@H](CCCCN)C(=O)N[C@@H](CCC(=O)O)C(=O)N[C@@H](Cc1ccccc1)C(=O)N[C@@H](CC(C)C)C(N)=O)C(C)C) [[Aib8,Glu23,Val25,Glu34,Aib36,Lys37]-GLP-1-(7-37)-peptidyl-Glu-Phe-Leu amide] | 0.034 | 0.013
H[Aib]EGTFTSDVSSYLEGEAVKEFIAWLVEK[Aib]KHFL-NH2 (N-terminus assumed; SMILES CC[C@H](C)[C@H](NC(=O)[C@H](Cc1ccccc1)NC(=O)[C@H](CCC(=O)O)NC(=O)[C@H](CCCCN)NC(=O)[C@@H](NC(=O)[C@H](C)NC(=O)[C@H](CCC(=O)O)NC(=O)CNC(=O)[C@H](CCC(=O)O)NC(=O)[C@H](CC(C)C)NC(=O)[C@H](Cc1ccc(O)cc1)NC(=O)[C@H](CO)NC(=O)[C@H](CO)NC(=O)[C@@H](NC(=O)[C@H](CC(=O)O)NC(=O)[C@H](CO)NC(=O)[C@@H](NC(=O)[C@H](Cc1ccccc1)NC(=O)[C@@H](NC(=O)CNC(=O)[C@H](CCC(=O)O)NC(=O)C(C)(C)NC(=O)[C@@H](N)Cc1c[nH]cn1)[C@@H](C)O)[C@@H](C)O)C(C)C)C(C)C)C(=O)N[C@@H](C)C(=O)N[C@@H](Cc1c[nH]c2ccccc12)C(=O)N[C@@H](CC(C)C)C(=O)N[C@H](C(=O)N[C@@H](CCC(=O)O)C(=O)N[C@@H](CCCCN)C(=O)NC(C)(C)C(=O)N[C@@H](CCCCN)C(=O)N[C@@H](Cc1c[nH]cn1)C(=O)N[C@@H](Cc1ccccc1)C(=O)N[C@@H](CC(C)C)C(N)=O)C(C)C) [[Aib8,Glu23,Val25,Glu34,Lys35,Aib36,Lys37]-GLP-1-(7-37)-peptidyl-His-Phe-Leu amide] | 0.205 | 0.062
H[Aib]EGTFTSDLSKQMEEEAVREFIEWLKNG[Aib]LEFLELL-NH2 (N-terminus assumed; SMILES CC[C@H](C)[C@H](NC(=O)[C@H](Cc1ccccc1)NC(=O)[C@H](CCC(=O)O)NC(=O)[C@H](CCCNC(=N)N)NC(=O)[C@@H](NC(=O)[C@H](C)NC(=O)[C@H](CCC(=O)O)NC(=O)[C@H](CCC(=O)O)NC(=O)[C@H](CCC(=O)O)NC(=O)[C@H](CCSC)NC(=O)[C@H](CCC(N)=O)NC(=O)[C@H](CCCCN)NC(=O)[C@H](CO)NC(=O)[C@H](CC(C)C)NC(=O)[C@H](CC(=O)O)NC(=O)[C@H](CO)NC(=O)[C@@H](NC(=O)[C@H](Cc1ccccc1)NC(=O)[C@@H](NC(=O)CNC(=O)[C@H](CCC(=O)O)NC(=O)C(C)(C)NC(=O)[C@@H](N)Cc1c[nH]cn1)[C@@H](C)O)[C@@H](C)O)C(C)C)C(=O)N[C@@H](CCC(=O)O)C(=O)N[C@@H](Cc1c[nH]c2ccccc12)C(=O)N[C@@H](CC(C)C)C(=O)N[C@@H](CCCCN)C(=O)N[C@@H](CC(N)=O)C(=O)NCC(=O)NC(C)(C)C(=O)N[C@@H](CC(C)C)C(=O)N[C@@H](CCC(=O)O)C(=O)N[C@@H](Cc1ccccc1)C(=O)N[C@@H](CC(C)C)C(=O)N[C@@H](CCC(=O)O)C(=O)N[C@@H](CC(C)C)C(=O)N[C@@H](CC(C)C)C(N)=O) [[Aib2,Glu21,Aib30,Leu31,Glu32,Phe33,Leu34,Glu35,Leu36,Leu37]-Exendin-4-(1-37)-peptide amide] | 0.067 | 0.032
H[Aib]EGTFTSDVSSYLEGEAVKEFIAWLVEK[Aib]GEFL-NH2 (N-terminus assumed; SMILES CC[C@H](C)[C@H](NC(=O)[C@H](Cc1ccccc1)NC(=O)[C@H](CCC(=O)O)NC(=O)[C@H](CCCCN)NC(=O)[C@@H](NC(=O)[C@H](C)NC(=O)[C@H](CCC(=O)O)NC(=O)CNC(=O)[C@H](CCC(=O)O)NC(=O)[C@H](CC(C)C)NC(=O)[C@H](Cc1ccc(O)cc1)NC(=O)[C@H](CO)NC(=O)[C@H](CO)NC(=O)[C@@H](NC(=O)[C@H](CC(=O)O)NC(=O)[C@H](CO)NC(=O)[C@@H](NC(=O)[C@H](Cc1ccccc1)NC(=O)[C@@H](NC(=O)CNC(=O)[C@H](CCC(=O)O)NC(=O)C(C)(C)NC(=O)[C@@H](N)Cc1c[nH]cn1)[C@@H](C)O)[C@@H](C)O)C(C)C)C(C)C)C(=O)N[C@@H](C)C(=O)N[C@@H](Cc1c[nH]c2ccccc12)C(=O)N[C@@H](CC(C)C)C(=O)N[C@H](C(=O)N[C@@H](CCC(=O)O)C(=O)N[C@@H](CCCCN)C(=O)NC(C)(C)C(=O)NCC(=O)N[C@@H](CCC(=O)O)C(=O)N[C@@H](Cc1ccccc1)C(=O)N[C@@H](CC(C)C)C(N)=O)C(C)C) [[Aib8,Glu23,Val25,Glu34,Lys35,Aib36]-GLP-1-(7-37)-peptidyl-Glu-Phe-Leu amide] | 0.039 | 0.013
